Starred links: 1 amine or outer side, 2 acyl side, 3 side chain; linkers in the order of their positions; H or OH if unused. Positions of bridges follow the written chain, without caps; N, C: chain ends. Non-standard residues stand in square brackets, D forms with d. Primed or numbered codes have the meaning given here. (Me2NPrPip)GlnR = (S)-2-amino-5-(4-(3-(dimethylamino)propyl)piperazin-1-yl)-5-oxopentanoic acid, CN(C)CCCN1CCN(C(=O)CC[C@H](N[*:1])C(=O)[*:2])CC1; PyrS2″ = (S)-3-amino-1-((pent-4-en-1-yloxy)carbonyl)pyrrolidine-3-carboxylic acid (stapling residue), C=CCCCOC(=O)N1CC[C@@](N[*:1])(C(=O)[*:2])C1; B5(4) = 2,2-bis(4-pentenyl)glycine = 2-amino-2-(pent-4-en-1-yl)hept-6-enoic acid (stitching residue), C=CCCCC(CCCC=C)(N[*:1])C(=O)[*:2]; (EtSSpy)GluE = (S)-2-amino-5-oxo-5-(2-(pyridin-2-yldisulfaneyl)ethoxy)pentanoic acid, O=C(CC[C@H](N[*:1])C(=O)[*:2])OCCSSc1ccccn1; TfeGA = (S)-2-amino-3-((carboxymethyl)(2,2,2-trifluoroethyl)amino)propanoic acid, O=C([C@H](CN(CC(=O)[*:3])CC(F)(F)F)N[*:1])[*:2]; (4Pippip)GlnR″ = (S)-5-([1,4'-bipiperidin]-1'-yl)-2-amino-5-oxopentanoic acid, O=C(CC[C@H](N[*:1])C(=O)[*:2])N1CCC(N2CCCCC2)CC1; PyrS2 = (S)-3-amino-1-((pent-4-en-1-yloxy)carbonyl)pyrrolidine-3-carboxylic acid, C=CCCCOC(=O)N1CC[C@@](N[*:1])(C(=O)[*:2])C1; (EtSSPh)GluE = (S)-2-amino-5-oxo-5-(2-(phenyldisulfaneyl)ethoxy)pentanoic acid, O=C(CC[C@H](N[*:1])C(=O)[*:2])OCCSSc1ccccc1; (EtSSPh)AspE = (S)-2-amino-4-oxo-4-(2-(phenyldisulfaneyl)ethoxy)butanoic acid, O=C(C[C@H](N[*:1])C(=O)[*:2])OCCSSc1ccccc1; (EtSSHex)AspE = (S)-2-amino-4-(2-(hexyldisulfaneyl)ethoxy)-4-oxobutanoic acid, CCCCCCSSCCOC(=O)C[C@H](N[*:1])C(=O)[*:2]; B5(27) = 2-amino-2-(pent-4-en-1-yl)hept-6-enoic acid (two alkene side-chain arms), C=CCCCC(CCCC=C)(N[*:1])C(=O)[*:2]; B5(19) = 2-amino-2-(pent-4-en-1-yl)hept-6-enoic acid (bis(4-pentenyl)glycine), C=CCCCC(CCCC=C)(N[*:1])C(=O)[*:2]; MorphAbu = (S)-2-amino-4-morpholinobutanoic acid, O=C([C@H](CCN1CCOCC1)N[*:1])[*:2]; Phe(4-NH2) = Nc1ccc(C[C@H](N)C(=O)O)cc1; Bta = N[C@@H](Cc1csc2ccccc12)C(=O)O; αAllylPro = C=CC[C@@]1(C(=O)O)CCCN1; tBuAla = CC(C)(C)C[C@H](N)C(=O)O; 3Thi = N[C@@H](Cc1ccsc1)C(=O)O; S8 = C=CCCCCCC[C@](C)(N)C(=O)O; TfeGA″ = not defined here
T1: B-cat-Halo (beta-catenin HaloTag NanoBRET construct expressed in HEK293 cells) (UniProt P35222 1-781)
T1 sequence (looked up): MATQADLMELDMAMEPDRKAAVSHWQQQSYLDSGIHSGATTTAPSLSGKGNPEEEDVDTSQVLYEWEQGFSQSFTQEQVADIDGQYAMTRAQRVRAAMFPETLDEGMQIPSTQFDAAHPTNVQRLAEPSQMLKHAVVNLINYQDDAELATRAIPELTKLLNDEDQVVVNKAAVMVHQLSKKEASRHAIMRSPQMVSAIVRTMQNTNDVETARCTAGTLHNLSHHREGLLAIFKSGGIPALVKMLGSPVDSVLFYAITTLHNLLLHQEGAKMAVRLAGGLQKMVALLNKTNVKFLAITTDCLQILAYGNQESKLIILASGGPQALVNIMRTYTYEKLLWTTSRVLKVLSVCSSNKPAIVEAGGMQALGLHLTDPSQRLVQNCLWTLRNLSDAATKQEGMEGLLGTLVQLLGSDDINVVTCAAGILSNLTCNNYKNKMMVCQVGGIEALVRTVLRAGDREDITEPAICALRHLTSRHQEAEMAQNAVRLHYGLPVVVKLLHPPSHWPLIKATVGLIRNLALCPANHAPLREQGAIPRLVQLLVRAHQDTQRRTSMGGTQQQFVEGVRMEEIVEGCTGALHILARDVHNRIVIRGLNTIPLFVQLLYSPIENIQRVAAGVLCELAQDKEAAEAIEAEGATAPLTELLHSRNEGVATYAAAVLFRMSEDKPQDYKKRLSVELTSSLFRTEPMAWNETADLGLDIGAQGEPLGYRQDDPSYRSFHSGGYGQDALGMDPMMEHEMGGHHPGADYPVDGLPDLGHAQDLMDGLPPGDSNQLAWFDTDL

T2: B-cat-Halo (beta-catenin HaloTag fusion expressed in HEK293 cells) (UniProt P35222 1-781, HaloTag labelled with HaloTag NanoBRET 618 Ligand)
T2 sequence (looked up): T1 sequence (looked up)

T3: full-length beta-Catenin (Uniprot ID P35222) (Homo sapiens (Human), UniProt P35222 1-781)
T3 construct: the AlphaScreen used a Histidine (Nickel Chelate) detection kit, so a His tag is likely but not described; also called B-Catenin; bCat
T3 sequence: T1 sequence (looked up)

B1: I-313 (peptide)
peptide: XDAXDDAAFVXFWQ
modifications: not fully specified; N-terminal acetyl (Ac); C-terminal amide (NH2); PL3 at 1, B5 at 4, S8 at 11, 4ClF (printed 4C1F) at 12; stapled PL3-B5 and B5-S8
notes: Ac-PL3-Asp-Ala-B5-Asp-Asp-Ala-Ala-Phe-Val-S8-4C1F-Trp-Gln-NH2; stapled peptide composition
B2: I-310 (peptide)
peptide: XDAXDDAAFVXFWQ
modifications: not fully specified; N-terminal acetyl (Ac); C-terminal amide (NH2); PL3 at 1, B5 at 4, S8 at 11, 3ClF (printed 3C1F) at 12; stapled PL3-B5 and B5-S8
notes: Ac-PL3-Asp-Ala-B5-Asp-Asp-Ala-Ala-Phe-Val-S8-3C1F-Trp-Gln-NH2; stapled peptide composition
B3: I-311 (peptide)
peptide: XDAXDDAAFVXFWQ
modifications: not fully specified; N-terminal acetyl (Ac); C-terminal amide (NH2); PL3 at 1, B5 at 4, S8 at 11, 3ClF (printed 3C1F) at 12; stapled PL3-B5 and B5-S8
notes: as for B2
B4: I-318 (peptide)
peptide: XDAXDDAAFVXFWQ
modifications: not fully specified; N-terminal acetyl (Ac); C-terminal amide (NH2); PL3 at 1, B5 at 4, S8 at 11, 2FF at 12; stapled PL3-B5 and B5-S8
notes: Ac-PL3-Asp-Ala-B5-Asp-Asp-Ala-Ala-Phe-Val-S8-2FF-Trp-Gln-NH2; stapled peptide composition
B5: I-319 (peptide)
peptide: XDAXDDAAFVXFWQ
modifications: not fully specified; N-terminal acetyl (Ac); C-terminal amide (NH2); PL3 at 1, B5 at 4, S8 at 11, 2FF at 12; stapled PL3-B5 and B5-S8
notes: as for B4
B6: I-315 (peptide)
peptide: XHAXDEAAFVXFWQ
modifications: not fully specified; N-terminal acetyl (Ac); C-terminal amide (NH2); PL3 at 1, B5 at 4, S8 at 11; stapled PL3-B5 and B5-S8
notes: Ac-PL3-His-Ala-B5-Asp-Glu-Ala-Ala-Phe-Val-S8-Phe-Trp-Gln-NH2; stapled peptide composition
B7: I-312 (peptide)
peptide: XDAXDDAAFVXFWQ
modifications: not fully specified; N-terminal acetyl (Ac); C-terminal amide (NH2); PL3 at 1, B5 at 4, S8 at 11, 4ClF (printed 4C1F) at 12; stapled PL3-B5 and B5-S8
notes: as for B1
B8: I-314 (peptide)
peptide: XHAXDEAAFVXFWQ
modifications: not fully specified; N-terminal acetyl (Ac); C-terminal amide (NH2); PL3 at 1, B5 at 4, S8 at 11; stapled PL3-B5 and B5-S8
notes: as for B6
B9: I-324 (peptide)
peptide: Ac-[αAllylPro]DA[B5(4)]D[Phe(4-NH2)]AAFV[S8]FWQ-NH2
modifications: staple 1-4, 4-11
notes: Ac-PL3-Asp-Ala-B5-Asp-4AmPhe-Ala-Ala-Phe-Val-S8-Phe-Trp-Gln-NH2; stapled peptide composition

Biological target: T1, B-cat-Halo (beta-catenin HaloTag …)
Experiment: cell-based or functional assay

Question: Which “NanoBRET Abs IC50” value does the source give for Ac-[αAllylPro]D[tBuAla][B5(4)]D[(EtSSpy)GluE]AAFL[PyrS2″][3Thi][Bta]Q-NH2 (staple 1-4, 4-11) [I-1951] here?
Answer: Its value is over 20 µM.

Question: How did the “NanoBRET Abs IC50” value turn out when Ac-[αAllylPro][(EtSSHex)AspE][tBuAla][B5(4)]DDAAFL[PyrS2″][3Thi][Bta]Q-NH2 (staple 1-4, 4-11; also: isomer composition, earlier eluting HPLC peak) [I-1959] was run?
Answer: The value was over 20 µM.

Question: Which “NanoBRET Abs IC50” value does the source give for Ac-[αAllylPro]D[tBuAla][B5(4)]D[(EtSSPh)GluE]AAFL[PyrS2″][3Thi][Bta]Q-NH2 (staple 1-4, 4-11; also: isomer composition, later eluting HPLC peak) [I-1958] here?
Answer: The value was over 20 µM.

Question: Which “NanoBRET Abs IC50” value does the source give for Ac-[αAllylPro]D[tBuAla][B5(19)]D[TfeGA]AAF[(Me2NPrPip)GlnR][PyrS2″][3Thi][Bta]Q-NH2 (staple 1-4, 4-11) [I-1936] here?
Answer: Its value is 15.7 µM.

Question: Ac-[αAllylPro]D[tBuAla][B5(19)]D[TfeGA]AAF[(4Pippip)GlnR″][PyrS2″][3Thi][Bta]Q-NH2 (staple 1-4, 4-11) [I-1940] was tested. Which “NanoBRET Abs IC50” value did it give?
Answer: The value was 15.4 µM.

Question: For Ac-[αAllylPro]D[tBuAla][B5(4)]D[TfeGA″]AAF[(NHBn)GlnR][PyrS2″][3Thi][Bta]Q-NH2 (staple 1-4, 4-11; reading uncertain) [I-1942], which “NanoBRET Abs IC50” value is on record?
Answer: The value was 7.9 µM.

Question: How did the “NanoBRET Abs IC50” value turn out when Ac-[αAllylPro][(EtSSPh)AspE][tBuAla][B5(4)]DDAAFL[PyrS2″][3Thi][Bta]Q-NH2 (staple 1-4, 4-11; also: isomer composition, earlier eluting HPLC peak) [I-1952] was run?
Answer: The value was over 20 µM.

Biological target: T2, B-cat-Halo (beta-catenin HaloTag fusion …)
Experiment: cell-based or functional assay

Question: Which “NanoBRET Abs IC50” value does the source give for Ac-[αAllylPro]D[tBuAla][B5(27)]DDA[MorphAbu]FL[PyrS2][3Thi][Bta]Q-NH2 (staple 1-4, 4-11) [I-1504] here?
Answer: Its value is over 20 µM.

Biological target: T3, full-length beta-Catenin (Uniprot ID …)
Experiment: AlphaScreen competition vs biotin-TCF4(10-53) on full-length beta-catenin
Outline: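 Titrated peptide was preincubated 15 minutes at 20° C, then donor and acceptor beads were added for 60 minutes at 20° C protected from light. Reads were done in duplicate, and data were fitted to a 1:1 binding model with Hill slope; concentrations are final.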

Question: With B1 as the binder, how does the EC50 read?
Answer: The EC50 was 3.6 µM.

Question: How did the EC50 turn out when B2 was run?
Answer: Its EC50 is 3.24 µM.

Question: B3 was tested. Which EC50 did it give?
Answer: The EC50 was 1.24 µM.

Question: How did the EC50 turn out when B4 was run?
Answer: Its EC50 is 0.121 µM.

Question: B5 was tested. Which EC50 did it give?
Answer: The EC50 was 0.054 µM.

Question: B6 was tested. Which EC50 did it give?
Answer: Its EC50 is 9.9 µM.

Question: Which EC50 does the source give for B7 here?
Answer: The EC50 was at least 10 µM.

Question: With B8 as the binder, how does the EC50 read?
Answer: Its EC50 is at least 10 µM.

Question: B9 was tested. Which EC50 did it give?
Answer: The EC50 was 1.75 µM.
